Test results reported in PMC10134200 (Cell Insight, 2023).

Target: GST-CaM (glutathione S-transferase-tagged calmodulin) (UniProt P0DP23 1-149)
Assay: pull-down

binding result: binds
B1: His-P3CP (His-tagged TRPP3 C-terminal peptide I560-K660) (domain or fragment)
chain: INDTYSEVKEELAGQKDELQLSDLLKQGYNKTLLRLRLRKERVSDVQKVLQGGEQEIQFEDFTNTLRELGHAEHEITELTATFTKFDRDGNRILDEKEQEK
